B1: GpH7-B3 variant S337_04F/GpL16-k0 (antibody, human IgG1, kappa)
heavy: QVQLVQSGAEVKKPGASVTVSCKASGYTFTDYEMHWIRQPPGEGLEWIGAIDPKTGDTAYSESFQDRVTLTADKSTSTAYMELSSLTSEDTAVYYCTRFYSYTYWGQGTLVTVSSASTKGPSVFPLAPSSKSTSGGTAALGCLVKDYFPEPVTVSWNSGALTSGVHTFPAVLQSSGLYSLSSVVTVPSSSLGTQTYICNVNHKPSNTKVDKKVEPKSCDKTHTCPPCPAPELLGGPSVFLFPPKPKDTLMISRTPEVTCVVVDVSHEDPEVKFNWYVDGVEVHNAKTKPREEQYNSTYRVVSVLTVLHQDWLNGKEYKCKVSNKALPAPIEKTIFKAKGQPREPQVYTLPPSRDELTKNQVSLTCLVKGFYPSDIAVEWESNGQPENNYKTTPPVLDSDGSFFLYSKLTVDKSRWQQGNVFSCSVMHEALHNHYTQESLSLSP
light: DIVMTQSPLSLPVTPGEPASISCQASESLVHSNRNTYLHWYLQKPGQSPQLLIYKVSNRFSGVPDRFSGSGSGTDFTLKISRVEAEDVGVYYCSQNTHVPPTFGQGTKVEIERTVAAPSVFIFPPSDEQLKSGTASVVCLLNNFYPREAKVQWKVDNALQSGNSQESVTEQDSKDSTYSLSSTLTLSKADYEKHKVYACEVTHQGLSSPVTKSFNRGEC
notes: also called Ho Ab S337_04F
B2: GpH7-B3 variant E333_13S/GpL16-k0 (antibody, human IgG1, kappa)
heavy: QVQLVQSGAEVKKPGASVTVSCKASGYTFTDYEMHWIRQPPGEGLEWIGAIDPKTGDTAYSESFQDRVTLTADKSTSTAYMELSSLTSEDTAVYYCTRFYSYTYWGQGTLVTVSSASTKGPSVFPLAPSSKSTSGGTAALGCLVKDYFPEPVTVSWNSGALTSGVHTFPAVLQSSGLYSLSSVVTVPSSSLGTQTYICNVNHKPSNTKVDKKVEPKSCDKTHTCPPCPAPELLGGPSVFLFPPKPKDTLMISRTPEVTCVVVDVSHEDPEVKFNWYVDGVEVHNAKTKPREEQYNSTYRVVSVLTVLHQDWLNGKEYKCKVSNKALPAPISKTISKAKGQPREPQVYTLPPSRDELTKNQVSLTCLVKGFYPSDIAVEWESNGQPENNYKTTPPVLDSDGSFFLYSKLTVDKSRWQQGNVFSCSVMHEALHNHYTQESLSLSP
light: DIVMTQSPLSLPVTPGEPASISCQASESLVHSNRNTYLHWYLQKPGQSPQLLIYKVSNRFSGVPDRFSGSGSGTDFTLKISRVEAEDVGVYYCSQNTHVPPTFGQGTKVEIERTVAAPSVFIFPPSDEQLKSGTASVVCLLNNFYPREAKVQWKVDNALQSGNSQESVTEQDSKDSTYSLSSTLTLSKADYEKHKVYACEVTHQGLSSPVTKSFNRGEC
notes: also called Ho Ab E333_13S
B3: GpH7-B3 variant E333_03V/GpL16-k0 (antibody, human IgG1, kappa)
heavy: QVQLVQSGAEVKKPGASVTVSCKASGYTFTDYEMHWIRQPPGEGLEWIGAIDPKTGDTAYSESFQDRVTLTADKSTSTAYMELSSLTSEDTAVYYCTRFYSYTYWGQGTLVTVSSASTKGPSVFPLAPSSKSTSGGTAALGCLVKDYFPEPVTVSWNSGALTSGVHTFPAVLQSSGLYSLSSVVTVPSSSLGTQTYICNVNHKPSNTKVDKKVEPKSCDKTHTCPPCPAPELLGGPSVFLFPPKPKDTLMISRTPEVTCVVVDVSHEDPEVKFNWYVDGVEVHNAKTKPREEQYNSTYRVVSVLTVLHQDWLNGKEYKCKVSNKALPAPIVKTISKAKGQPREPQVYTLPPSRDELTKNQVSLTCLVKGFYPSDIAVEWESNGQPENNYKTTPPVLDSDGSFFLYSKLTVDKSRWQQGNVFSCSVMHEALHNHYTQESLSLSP
light: DIVMTQSPLSLPVTPGEPASISCQASESLVHSNRNTYLHWYLQKPGQSPQLLIYKVSNRFSGVPDRFSGSGSGTDFTLKISRVEAEDVGVYYCSQNTHVPPTFGQGTKVEIERTVAAPSVFIFPPSDEQLKSGTASVVCLLNNFYPREAKVQWKVDNALQSGNSQESVTEQDSKDSTYSLSSTLTLSKADYEKHKVYACEVTHQGLSSPVTKSFNRGEC
notes: also called Ho Ab E333_03V
B4: GpH7-B3 variant E333_04F/GpL16-k0 (antibody, human IgG1, kappa)
heavy: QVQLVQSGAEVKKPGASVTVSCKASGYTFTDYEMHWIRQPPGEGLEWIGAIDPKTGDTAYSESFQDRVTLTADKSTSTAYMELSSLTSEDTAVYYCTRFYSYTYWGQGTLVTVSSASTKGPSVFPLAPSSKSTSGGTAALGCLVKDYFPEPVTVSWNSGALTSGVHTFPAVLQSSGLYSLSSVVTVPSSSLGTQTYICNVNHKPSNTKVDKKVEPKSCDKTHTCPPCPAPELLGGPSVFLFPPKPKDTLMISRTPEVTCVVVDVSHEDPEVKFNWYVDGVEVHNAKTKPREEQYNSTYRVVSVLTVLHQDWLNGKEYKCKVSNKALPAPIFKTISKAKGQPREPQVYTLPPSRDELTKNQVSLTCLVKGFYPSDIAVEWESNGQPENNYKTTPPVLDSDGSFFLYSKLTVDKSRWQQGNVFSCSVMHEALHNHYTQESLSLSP
light: DIVMTQSPLSLPVTPGEPASISCQASESLVHSNRNTYLHWYLQKPGQSPQLLIYKVSNRFSGVPDRFSGSGSGTDFTLKISRVEAEDVGVYYCSQNTHVPPTFGQGTKVEIERTVAAPSVFIFPPSDEQLKSGTASVVCLLNNFYPREAKVQWKVDNALQSGNSQESVTEQDSKDSTYSLSSTLTLSKADYEKHKVYACEVTHQGLSSPVTKSFNRGEC
notes: also called Ho Ab E333_04F
B5: GpH7-B3 variant A330_05P/GpL16-k0 (antibody, human IgG1, kappa)
heavy: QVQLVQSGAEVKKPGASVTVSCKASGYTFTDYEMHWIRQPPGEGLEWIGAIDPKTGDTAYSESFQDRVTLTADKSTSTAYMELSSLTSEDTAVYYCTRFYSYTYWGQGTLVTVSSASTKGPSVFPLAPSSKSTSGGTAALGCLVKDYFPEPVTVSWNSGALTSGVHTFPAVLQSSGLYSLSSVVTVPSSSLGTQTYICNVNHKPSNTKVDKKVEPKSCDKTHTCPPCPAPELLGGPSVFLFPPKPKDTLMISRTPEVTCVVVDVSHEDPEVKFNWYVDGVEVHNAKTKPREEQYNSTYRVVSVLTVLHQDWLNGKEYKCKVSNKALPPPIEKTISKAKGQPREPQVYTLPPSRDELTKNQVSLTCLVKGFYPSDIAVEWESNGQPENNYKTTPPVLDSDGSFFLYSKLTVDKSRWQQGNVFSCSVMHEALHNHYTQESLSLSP
light: DIVMTQSPLSLPVTPGEPASISCQASESLVHSNRNTYLHWYLQKPGQSPQLLIYKVSNRFSGVPDRFSGSGSGTDFTLKISRVEAEDVGVYYCSQNTHVPPTFGQGTKVEIERTVAAPSVFIFPPSDEQLKSGTASVVCLLNNFYPREAKVQWKVDNALQSGNSQESVTEQDSKDSTYSLSSTLTLSKADYEKHKVYACEVTHQGLSSPVTKSFNRGEC
notes: also called Ho Ab A330_05P
B6: GpH7-B3 variant E333_09D/GpL16-k0 (antibody, human IgG1, kappa)
heavy: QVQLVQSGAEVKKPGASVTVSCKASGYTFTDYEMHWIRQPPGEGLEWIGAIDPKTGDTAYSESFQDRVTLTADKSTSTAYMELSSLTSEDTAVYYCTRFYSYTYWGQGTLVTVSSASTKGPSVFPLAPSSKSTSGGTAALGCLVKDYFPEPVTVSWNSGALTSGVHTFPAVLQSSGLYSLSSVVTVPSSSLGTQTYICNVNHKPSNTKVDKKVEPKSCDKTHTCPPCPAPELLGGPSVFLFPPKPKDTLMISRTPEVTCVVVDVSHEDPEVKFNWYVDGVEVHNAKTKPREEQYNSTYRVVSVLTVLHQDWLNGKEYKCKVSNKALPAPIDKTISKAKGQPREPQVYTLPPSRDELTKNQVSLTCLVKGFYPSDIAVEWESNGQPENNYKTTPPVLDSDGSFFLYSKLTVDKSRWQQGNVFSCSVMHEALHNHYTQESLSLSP
light: DIVMTQSPLSLPVTPGEPASISCQASESLVHSNRNTYLHWYLQKPGQSPQLLIYKVSNRFSGVPDRFSGSGSGTDFTLKISRVEAEDVGVYYCSQNTHVPPTFGQGTKVEIERTVAAPSVFIFPPSDEQLKSGTASVVCLLNNFYPREAKVQWKVDNALQSGNSQESVTEQDSKDSTYSLSSTLTLSKADYEKHKVYACEVTHQGLSSPVTKSFNRGEC
notes: also called Ho Ab E333_09D
B7: GpH7-B3 variant A330_07I/GpL16-k0 (antibody, human IgG1, kappa)
heavy: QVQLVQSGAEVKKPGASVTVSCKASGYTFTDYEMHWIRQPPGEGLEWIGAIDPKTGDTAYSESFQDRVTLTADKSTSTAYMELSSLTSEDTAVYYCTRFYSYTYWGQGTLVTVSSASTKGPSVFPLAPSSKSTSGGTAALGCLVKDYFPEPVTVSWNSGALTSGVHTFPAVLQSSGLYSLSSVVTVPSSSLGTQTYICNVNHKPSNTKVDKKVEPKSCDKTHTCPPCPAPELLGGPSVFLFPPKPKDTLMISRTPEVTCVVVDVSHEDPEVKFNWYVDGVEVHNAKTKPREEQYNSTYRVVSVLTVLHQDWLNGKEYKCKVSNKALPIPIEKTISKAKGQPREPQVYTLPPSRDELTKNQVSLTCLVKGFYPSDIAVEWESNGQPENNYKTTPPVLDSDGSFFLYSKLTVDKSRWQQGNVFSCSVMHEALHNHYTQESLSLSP
light: DIVMTQSPLSLPVTPGEPASISCQASESLVHSNRNTYLHWYLQKPGQSPQLLIYKVSNRFSGVPDRFSGSGSGTDFTLKISRVEAEDVGVYYCSQNTHVPPTFGQGTKVEIERTVAAPSVFIFPPSDEQLKSGTASVVCLLNNFYPREAKVQWKVDNALQSGNSQESVTEQDSKDSTYSLSSTLTLSKADYEKHKVYACEVTHQGLSSPVTKSFNRGEC
notes: also called Ho Ab A330_07I
B8: GpH7-B3 variant E333_02A/GpL16-k0 (antibody, human IgG1, kappa)
heavy: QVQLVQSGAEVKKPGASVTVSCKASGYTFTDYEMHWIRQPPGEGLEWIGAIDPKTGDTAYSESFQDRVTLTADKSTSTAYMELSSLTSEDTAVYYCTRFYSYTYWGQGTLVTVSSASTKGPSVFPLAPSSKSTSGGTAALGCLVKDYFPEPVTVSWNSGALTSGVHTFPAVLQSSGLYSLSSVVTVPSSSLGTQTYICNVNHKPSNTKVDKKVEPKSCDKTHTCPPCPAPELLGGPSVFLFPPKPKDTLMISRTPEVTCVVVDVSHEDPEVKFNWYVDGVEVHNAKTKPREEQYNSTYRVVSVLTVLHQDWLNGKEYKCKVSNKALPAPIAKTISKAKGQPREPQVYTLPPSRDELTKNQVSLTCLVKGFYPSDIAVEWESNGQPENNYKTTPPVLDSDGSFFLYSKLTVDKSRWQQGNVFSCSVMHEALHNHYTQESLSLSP
light: DIVMTQSPLSLPVTPGEPASISCQASESLVHSNRNTYLHWYLQKPGQSPQLLIYKVSNRFSGVPDRFSGSGSGTDFTLKISRVEAEDVGVYYCSQNTHVPPTFGQGTKVEIERTVAAPSVFIFPPSDEQLKSGTASVVCLLNNFYPREAKVQWKVDNALQSGNSQESVTEQDSKDSTYSLSSTLTLSKADYEKHKVYACEVTHQGLSSPVTKSFNRGEC
notes: also called Ho Ab E333_02A
B9: GpH7-A5/GpH7-B3 variant Y300_07I/GpL16-k0 (antibody, human IgG1, kappa)
heavy 1: not shown
heavy 2: not shown
light: DIVMTQSPLSLPVTPGEPASISCQASESLVHSNRNTYLHWYLQKPGQSPQLLIYKVSNRFSGVPDRFSGSGSGTDFTLKISRVEAEDVGVYYCSQNTHVPPTFGQGTKVEIERTVAAPSVFIFPPSDEQLKSGTASVVCLLNNFYPREAKVQWKVDNALQSGNSQESVTEQDSKDSTYSLSSTLTLSKADYEKHKVYACEVTHQGLSSPVTKSFNRGEC
notes: heterodimerized antibody, mutation in one H chain only; also called Y300_07I He Ab
B10: GpH7-A5/GpH7-B3 variant Y296_07I/GpL16-k0 (antibody, human IgG1, kappa)
heavy 1: not shown
heavy 2: not shown
light: DIVMTQSPLSLPVTPGEPASISCQASESLVHSNRNTYLHWYLQKPGQSPQLLIYKVSNRFSGVPDRFSGSGSGTDFTLKISRVEAEDVGVYYCSQNTHVPPTFGQGTKVEIERTVAAPSVFIFPPSDEQLKSGTASVVCLLNNFYPREAKVQWKVDNALQSGNSQESVTEQDSKDSTYSLSSTLTLSKADYEKHKVYACEVTHQGLSSPVTKSFNRGEC
notes: heterodimerized antibody, mutation in one H chain only; also called Y296_07I He Ab
B11: GpH7-A5/GpH7-B3 variant T335_13S/GpL16-k0 (antibody, human IgG1, kappa)
heavy 1: not shown
heavy 2: not shown
light: DIVMTQSPLSLPVTPGEPASISCQASESLVHSNRNTYLHWYLQKPGQSPQLLIYKVSNRFSGVPDRFSGSGSGTDFTLKISRVEAEDVGVYYCSQNTHVPPTFGQGTKVEIERTVAAPSVFIFPPSDEQLKSGTASVVCLLNNFYPREAKVQWKVDNALQSGNSQESVTEQDSKDSTYSLSSTLTLSKADYEKHKVYACEVTHQGLSSPVTKSFNRGEC
notes: heterodimerized antibody, mutation in one H chain only; also called T335_13S He Ab
B12: GpH7-A5/GpH7-B3 variant Y296_02A/GpL16-k0 (antibody, human IgG1, kappa)
heavy 1: not shown
heavy 2: not shown
light: DIVMTQSPLSLPVTPGEPASISCQASESLVHSNRNTYLHWYLQKPGQSPQLLIYKVSNRFSGVPDRFSGSGSGTDFTLKISRVEAEDVGVYYCSQNTHVPPTFGQGTKVEIERTVAAPSVFIFPPSDEQLKSGTASVVCLLNNFYPREAKVQWKVDNALQSGNSQESVTEQDSKDSTYSLSSTLTLSKADYEKHKVYACEVTHQGLSSPVTKSFNRGEC
notes: heterodimerized antibody, mutation in one H chain only; also called Y296_02A He Ab
B13: GpH7-A5/GpH7-B3 variant T335_02A/GpL16-k0 (antibody, human IgG1, kappa)
heavy 1: not shown
heavy 2: not shown
light: DIVMTQSPLSLPVTPGEPASISCQASESLVHSNRNTYLHWYLQKPGQSPQLLIYKVSNRFSGVPDRFSGSGSGTDFTLKISRVEAEDVGVYYCSQNTHVPPTFGQGTKVEIERTVAAPSVFIFPPSDEQLKSGTASVVCLLNNFYPREAKVQWKVDNALQSGNSQESVTEQDSKDSTYSLSSTLTLSKADYEKHKVYACEVTHQGLSSPVTKSFNRGEC
notes: heterodimerized antibody, mutation in one H chain only; also called T335_02A He Ab
B14: GpH7-A5/GpH7-B3 variant Y296_08L/GpL16-k0 (antibody, human IgG1, kappa)
heavy 1: not shown
heavy 2: not shown
light: DIVMTQSPLSLPVTPGEPASISCQASESLVHSNRNTYLHWYLQKPGQSPQLLIYKVSNRFSGVPDRFSGSGSGTDFTLKISRVEAEDVGVYYCSQNTHVPPTFGQGTKVEIERTVAAPSVFIFPPSDEQLKSGTASVVCLLNNFYPREAKVQWKVDNALQSGNSQESVTEQDSKDSTYSLSSTLTLSKADYEKHKVYACEVTHQGLSSPVTKSFNRGEC
notes: heterodimerized antibody, mutation in one H chain only; also called Y296_08L He Ab
B15: GpH7-A5/GpH7-B3 variant Y300_16H/GpL16-k0 (antibody, human IgG1, kappa)
heavy 1: not shown
heavy 2: not shown
light: DIVMTQSPLSLPVTPGEPASISCQASESLVHSNRNTYLHWYLQKPGQSPQLLIYKVSNRFSGVPDRFSGSGSGTDFTLKISRVEAEDVGVYYCSQNTHVPPTFGQGTKVEIERTVAAPSVFIFPPSDEQLKSGTASVVCLLNNFYPREAKVQWKVDNALQSGNSQESVTEQDSKDSTYSLSSTLTLSKADYEKHKVYACEVTHQGLSSPVTKSFNRGEC
notes: heterodimerized antibody, mutation in one H chain only; also called Y300_16H He Ab
B16: GpH7-A5/GpH7-B3 variant Y296_03V/GpL16-k0 (antibody, human IgG1, kappa)
heavy 1: not shown
heavy 2: not shown
light: DIVMTQSPLSLPVTPGEPASISCQASESLVHSNRNTYLHWYLQKPGQSPQLLIYKVSNRFSGVPDRFSGSGSGTDFTLKISRVEAEDVGVYYCSQNTHVPPTFGQGTKVEIERTVAAPSVFIFPPSDEQLKSGTASVVCLLNNFYPREAKVQWKVDNALQSGNSQESVTEQDSKDSTYSLSSTLTLSKADYEKHKVYACEVTHQGLSSPVTKSFNRGEC
notes: heterodimerized antibody, mutation in one H chain only; also called Y296_03V He Ab

In one assay the target is T1, FcγRIIIa extracellular domain with C-terminal His tag (human, UniProt P08637 17-208).
T1 construct: extracellular domain; also called FcgRIIIa; 3a; not shown: His tag at the C terminus
T1 sequence (P08637 17-208): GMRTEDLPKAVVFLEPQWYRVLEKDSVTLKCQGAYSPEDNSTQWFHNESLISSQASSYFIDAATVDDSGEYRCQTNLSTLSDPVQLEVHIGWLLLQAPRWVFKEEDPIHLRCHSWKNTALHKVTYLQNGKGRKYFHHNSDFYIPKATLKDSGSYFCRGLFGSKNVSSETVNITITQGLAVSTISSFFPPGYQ
The experiment in a line: SPR relative binding; GpH7-B3/GpL16-k0 = 100. On the procedure:
Analysis of interaction between objective antibody and the FcγR was carried out using Biacore T100 (GE Healthcare). HBS-EP+ (GE Healthcare) was used as the running buffer, and the measurement temperature was set to 25° C. Chips produced by immobilizing the antigen peptide by the amine coupling method to a Series S Sencor Chip CM5 (GE Healthcare), or alternatively, chips produced by allowing preliminarily biotinylated antigen peptides to interact with and immobilize onto a Series S Sensor Chip SA (certified) (GE Healthcare) were used. Antibodies of interest were captured onto an antigen peptide-immobilized chip, and allowed to interact to each FcγR diluted with running buffer. To regenerate and repeatedly use the chip, the antibodies captured on the chip were washed off by reacting 10 mM glycine-HCl, pH 1.5.
The FcγR-binding activity of each antibody was assessed primarily using as an indicator the FcγR-binding activity and dissociation constant for FcγR.
On to B1, for which the Ho/Con_3a is 95.6 % of control.
The same measure, in the same setting: the same measure for B2: 95.1 % of control; for B3: 86.5 % of control; for B4: 87.1 % of control.
On the same count and under the same terms, the same measure for B5: 56.6 % of control; for B6: 109 % of control; for B7: 93 % of control.
Still for that read-out and setting: next, B8: 93.3 % of control.

The target in another assay is T2, FcγRIa extracellular domain with C-terminal His tag (human, UniProt P12314 16-292).
T2 construct: extracellular domain; soluble analyte in Biacore; also called FcgRI; CD64
T2 sequence (P12314 16-292): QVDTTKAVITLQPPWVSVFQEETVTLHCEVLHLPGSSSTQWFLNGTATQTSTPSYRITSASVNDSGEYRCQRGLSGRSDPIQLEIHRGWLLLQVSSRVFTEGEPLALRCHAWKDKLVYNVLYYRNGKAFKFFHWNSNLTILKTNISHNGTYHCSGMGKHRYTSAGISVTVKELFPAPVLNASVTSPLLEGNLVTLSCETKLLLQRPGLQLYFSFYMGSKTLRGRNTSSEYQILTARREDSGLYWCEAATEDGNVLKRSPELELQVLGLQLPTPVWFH
Description: SPR (Biacore), relative FcγRIa binding, GpH7-A5/GpH7-B3/GpL16-k0 (HeCon Ab) = 100.
Regarding B9, the He/Con_1a was 108 % of control.
Same read-out and setting: next, B10: 104 % of control.
The same measure, in the same setting: next, B11: 105 % of control.
The same measure, in the same setting: the same measure for B12: 103 % of control; for B13: 103 % of control.
In the case of B14, the He/Con_1a is 104 % of control.
The same measure, in the same setting: the same measure for B15: 111 % of control.
The same measure, in the same setting: the same measure for B16: 104 % of control.

The values above are taken from US20180155451A1 (published 2018).
